assay: yeast display, Sf9 membrane polyspecificity reagent, FACS + sequencing; frameworks hold sequencing errors
In short: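 Galactose-induced (36–48 hours) yeast carrying a synthetic nanobody display library were exposed to 10% biotinylated, detergent-solubilized Sf9 membrane reagent at 4 °C for 1 hour. FACS followed streptavidin microbead enrichment, using low and high (top ~1%) gates for expression (anti-HA) and reagent binding (streptavidin). Colony PCR, MiSeq 2 × 250 sequencing and CDR-length filtering followed. Labels for polyreactivity reflect the gate of origin.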

Sequence	polyreactivity (PSR sort gate)
PVQLVESGGGLVQAGGSLRLSCAASGFIFRRNAMGWYRQAPGKERELVASIRSGGSTKYADSVKGRFTISRDNAKNTVYLQMTSLKPEDTAVYYCNAEDPGYAVRWYWFKYDYWGQGTQVSVSS	low polyreactivity
QVQLVESGGGLVQAGGSLRLRCAASGNTFAYYAMGWYRQAPGKERELVASITGSGTSTYYADSVKGRFTISRDNEKNTVYLQMNSLKPEDTAVYYCAKRYYYKWFGYWGQGTQVTVSS	high polyreactivity
QVQLVESVGGLVQAGGSLRLSCAASGRTCGYKAMGWYRQAPGKERQLVAAISRGGSTNYADSVKGRFTISRDNAKNSVYLQMNSLKPEDTAVYYCAKTIRAYRPSRTAYRLDYWGQGTQVTVSS	high polyreactivity
QVQLVESGGGLVQAGGSLRLSCAAYGRTFNPYAMGWYRQAPGKERELVARITWSGGRTYYADSVKGRFTISRDNAKNTVYLQMNSLKPEDTAVYYCAARYSKYLYGRFESWGQGTQVTVSS	high polyreactivity
QVQLVESGGGLVQAGGSLRLSCAASGRFFVPYFIGSYRQAPGTERELVASISDSDTSTYYADSVKGRFTISRDNAKNTVYLQMNSLKPEDTAVYYCNVDYWGQGTQVTLSS	low polyreactivity
QVQLVESGGGLVQAGGSLRLSCAASGLTFYSYAMGWSRQAPGKERELVAAISKSGGSTFYADSVKGRFTISRDNAKNTVYLQMNSLKPEDTAVYYCNARRRHEGSPPYGYWGQGTQVTVSS	high polyreactivity
QVQLVESGGGLVQAGGSLRLSCAASGSIFTENAMGWYRQPPGKERELVATITITGSTNYADSVKGRFTISRDNAKKTVYLQMNSLKPADTAVYYCNADLYIAFSASAYDYWGQGTQVTVSS	low polyreactivity
QVQLVESGGGLVQAGGSLRLSCAASGRTFYLNVMGWYRQAPGKEREFVASISTTGGSTYYADSVKGRFTISRDNAKNTVYLQMNSLKPDDTAVYYCAASLRYWARNYWGQGTQVTVSS	high polyreactivity
QVQLVESGGGLVQAGGSLRLSCAASGSILYFNAMGWYRQAPGKERELVAAISRTGSRTYYADSVKGRFTISRDNAKNTVYLQMNSLKPEDTAVFYCAAYNGITSHLRFDYWGQGTQVTVSS	high polyreactivity
HVQIVESGGGLVQAGGSLRLSCADSGSTFLGYDMGWFRQAPGKVRELVATISKSGGSTHYADSVKGRFTISRDNAKNTVSLQMNSLKPEETAVYYCAADYYPRYYKNTGEYDYWGQGTQVTVSS	low polyreactivity
QVQLVESGGGLVQAGGSLRLSCAASGRIFTNYAMGWYRQAPGKEREFVAAISWSDGSTYYADSVKGRFTISRDNAKNTVYLQMNSLKPEDTAVYYCATEGTYGTFYSYRHFYYWGQGTQVTVSS	high polyreactivity
QVQLVESGGGLVEAGGSLRLSCAASGSTFRWYAMGWYRQAPGKERELVAAISRSGASTYDSDSVKGRFTISRDNAKNTVYLQMNSLKPEDTAVYYCAAKQRTKGDYWRQGTQVTVSS	high polyreactivity
QVQLVESGGGLVQAGGSLRLSCAASGRIFGHYAMGWYIQAPGKERELVAAISRGGSTNYADSVKGRFTISRDNAKNTVYLQINSLKPVDNAVYYCNAAYSDYEYDYWGQGTQVSVSS	low polyreactivity
QVQLVESGGGLDQAGGSLRLSCAASGSTFVGYAMGWYRQAPGKERELVAAISGSGTSTYYADSVKGRFTISRDNAKNTVYLQMNSLKPEDTAVYYCNADPIFVYSSYNYWGQGTQVTVSS	low polyreactivity
QVQLVESGGGLVQAGGSLRLSCAAAGIIFTGYAMGWYRQAPGKERELVAAITASGGRTYYADSVKGRYTISRDNAKNTVYLQMNSLKPEDTAVYYCNAVPTVLRVLKYDYWGQGTQVTVSS	high polyreactivity
QVQLVESGGGLVQAGASLRLSCAASGRIYPVYTMGWYRQAPGKERELVAAITSSGGSTYYADSVKGSFTISRDNAKNTVYLQMNSLKPEDTAVYDCAKRAGWAYYYWGQGTQVTVSS	high polyreactivity

Sequence	polyreactivity (PSR sort gate)
QVQLVESGGGLFQAGGSLRLSCAASGNTFPYYAMGWYRQAPVKERELVAAISRSGGTTYYADSVKGRFTISRDNAKNTVYLQMTSLKPEDTAVYYCAALYGSRSTYHMDDYWGQGSQVTVSS	high polyreactivity
QVQLVESGGGLVQAGGSLRLSCAASGFIFDYNAMGWYRQAPGKERELVAAIDITGGSTYYADSVKGRFTISRDNAKNTVYLQMNSLKPEDTAVYYCNRPYYIWVYSGYSGYDYWGQGTQVTVSS	low polyreactivity
QVQLVDSGAGLVQAGGSLRLSCAASGSIYYRYALGWYRQAPRQVRELVAAITQSTDSTYYADSVKGRFTISRDNAKNTVYLQMNSLKPEDTAVYYCAAYLVYYRPYAYGYWGQGTQVTVSS	low polyreactivity
QVQLVESGGGLVQAGGSLRLSCAASGFTFIPNAMGWYRQAPGKERELVADITWSGGTTYYADSVKGRFTISRDNAKNTVYFQMNSLKPEDTAVYYCNADYLFYAFDYWGQGTQVTVSS	low polyreactivity
QVQLVESGGGLVPAGGSLRLSCAASGRIFGWYAMGWYRQAPGKEREFVAAITVTGGSTYYADSVKGRFTISRDNAKNTVYLQMNSLKPEDTAVYYCAADRWYTRTGFDYWGQGTQVTVSS	low polyreactivity
QVQLVESGGGLVQAGGSLRLSCAASGRIFGWYAMGWYRQAPGNERELVAAINRGGSTNYADSVKGRFTISRDNAKNTVYLQMNSLKPEDTAVYYCAVRGVHYTAVTNIKYGYGYWGQGTQVTVSS	high polyreactivity
QVQLVESGGGLVQAGGRLRLSCAASGRIFKWYPMGLYRQAPGKERELVAAITSGGSTYYADSVKGRFTISRDNAKNTVYLQMNSLNPEDTAVYYCAAPVYLYGTVGRGDYWGQGTQVTVSS	high polyreactivity
QVQLVESGVGLVQGGGSLRLTCPASGFTFDWYAMGWYRPAPGKERELVAAISSSGTSTYYADSVKGRFTISRDTAKNTVYLQMNSLKPEDTAVYYCAARWYYVTPLRRYCYWGQGTQVTVSS	high polyreactivity
QVQLVESGGGLVQAGGSLRLSCAASGSTFVIYALGWYRQAPGKERELVAALSWSGGRTNYADSVKGRFTISRDNAKNTVYLQLNSLKPEDTAVYYCAAVTGVPYPHGRYKYGYWGQGTQVTVSS	high polyreactivity
QFQLVESGGGLVQAGGSLRLSCAASGRTFVYYVMGWYRPAPGKERELVAAISRRGGSTYYADSVKGRFTISRDNAKNTVYLQMNSLKPEDTAVYYCAAQYYYAREDYWGQGTQVTVSS	high polyreactivity
QVQLVESGGGLVQAGGSLRLSCAASGFIFPNNAMGWYRHAPGKERELVARISYGGGDTHYADSVKGRFTISRDNAKNTVYLQMNSLKPEDTAVYYCAVKDGQDDYWGQGTQVTVSS	low polyreactivity
QVQLVESGGGLVQAGGSLRLSCAASGITFKTYAMGWYRQAPGKERELVATINRGSRTNYADSVKGRFTISRDNAKNTVYLQMNSLKPEDTAVYYCAAHYTTFIPSPDGDYLGQGTQVTVSS	low polyreactivity
QVQLVESGGGLVQAGGSLRLSCAASGSIFVNYAMGWYRQAPGKERELVAAITLRGGSTFYADSVKGRFTISRDNAKNTVYLQMNSLKPEDTAVYYCAASSLRYRAYKSLFDYWGQGTQVTVSS	low polyreactivity
QVQLVESGGGLVQAGGSLRLSCAASGSIFYRYAMGWYRQAPGKERELVAAISRSGASTYYADSVKGRFTISRDNAKNTVYLQMNSLKPEDTAVYYCNALFSKFTNRYDYWGQGTQVTVSS	high polyreactivity
QVQHVESGGGLVQAGGSLRLSCAASGFIFGYYTMGWSRQAPGKERELVAAITSGDSTNYADSVKGRFTISRDNAKNTVYLQMNSLKPEDTAVYYCNARGLFTWMDYWGQGTQVTVSS	low polyreactivity
QVQLVESGGGLVQAGGSLRLSCAASGRTLYPYAMGWYRQAPGKERELVAAISSTGGRTYYADSVKGRFTISRDNAKNTVYLQMNSLKPEDTAVYYCAAIYRAQYDYWGQGTQVTVSS	high polyreactivity

Reference: the nanobody polyreactivity screen of Harvey et al. (2022)
